According to patent US20200353062A1, “PHARMACEUTICAL COMPOSITIONS, METHODS FOR PREPARATION COMPRISING SIZING OF LIPID VESICLE PARTICLES, AND USES THEREOF” (IMMUNOVACCINE TECHNOLOGIES INC., priority 2017, published 2020):
“And” between values parts separate entries of the source, which are not always exact repeats. Equal values may be shown once. Where no end group is shown, it is not given here. [ ]: non-standard residue; d: D form. Met(O) = CS(=O)CC[C@H](N)C(=O)O

Experiments:
[1] = Lipid assay and degradant limit test by RP-HPLC; conditions: for Lipid Impurities (HPLC) / Lipid Impurities (RP-HPLC): % of DOPC area; for Lipid Impurities (RP-HPLC): solubilized Batch #4 in vials, room temperature
[2] = Peptide assay and peptide impurities by RP-HPLC; assay type: physicochemical; conditions: for Peptide Content by RP-HPLC / Peptide Impurities by RP-HPLC (% Area): compositions from sized lipid vesicle particles
Description: Identification and quantification of peptides was performed using a reversed-phase HPLC (RP-HPLC) method. The method utilizes an Agilent 1100 Series HPLC system equipped with a Phenomenex Luna 5 μm C8(2) column. The mobile phase is a gradient of 16-37% (v/v) acetonitrile in 0.1% (v/v) aqueous trifluoroacetic acid. Column temperature is maintained at 50° C., and UV-PDA detection is performed at 215 nm. The assay may also be used to identify peptide impurities. The tests were validated to the extent required for a phase 1/2 clinical phase study (data not included).

[3] = compositions from sized lipid vesicle particles, Average (n = 5)
[4] = compositions from sized lipid vesicle particles, individual Vial 1-5
[5] = sized-vesicle preparation stored at 5° C. ± 3° C., 0 months
[6] = sized-vesicle preparation stored at 5° C. ± 3° C., 3 months
[7] = sized-vesicle preparation stored at 5° C. ± 3° C., 6 months
[8] = sized-vesicle preparation stored at 5° C. ± 3° C., 9 months
[9] = sized-vesicle preparation stored at 5° C. ± 3° C., 12 months
[10] = sized-vesicle preparation stored at 5° C. ± 3° C., 18 months
[11] = sized-vesicle preparation stored at −20° C. ± 5° C., 0 months
[12] = sized-vesicle preparation stored at −20° C. ± 5° C., 6 months
[13] = sized-vesicle preparation stored at −20° C. ± 5° C., 12 months
[14] = sized-vesicle preparation stored at −20° C. ± 5° C., 18 months
[15] = solubilized Batch #4 in syringe, t = 60 min

Row | Molecule | Peptide Content by RP-HPLC ([2]; Average (n = 5)) | Peptide Content by RP-HPLC ([2]; individual Vial 1-5) | Peptide Assay (RP-HPLC) [2, 5] | Peptide Assay (RP-HPLC) [2, 6] | Peptide Assay (RP-HPLC) [2, 7] | Peptide Assay (RP-HPLC) [2, 8] | Peptide Assay (RP-HPLC) [2, 9] | Peptide Assay (RP-HPLC) [2, 10] | Peptide Assay (RP-HPLC) [2, 11] | Peptide Assay (RP-HPLC) [2, 12] | Peptide Assay (RP-HPLC) [2, 13] | Peptide Assay (RP-HPLC) [2, 14] | further results
1 | CC(C)CCC[C@@H](C)[C@H]1CC[C@H]2[C@@H]3CC=C4C[C@@H](O)CC[C@]4(C)[C@H]3CC[C@]12C [Cholesterol, cholesterol] |  |  |  |  |  |  |  |  |  |  |  |  | Lipid Content by RP-HPLC [1, 3]: 11.36 mg/mL; Lipid Content by RP-HPLC [1, 4]: 11.20 mg/mL and 11.62 mg/mL and 11.48 mg/mL and 11.44 mg/mL and 11.05 mg/mL; Lipid Assay (RP-HPLC) [1, 5]: 11.03 mg/mL; Lipid Assay (RP-HPLC) [1, 6]: 11.30 mg/mL; Lipid Assay (RP-HPLC) [1, 7]: 12.26 mg/mL; Lipid Assay (RP-HPLC) [1, 8]: 12.11 mg/mL; Lipid Assay (RP-HPLC) [1, 9]: 12.00 mg/mL; Lipid Assay (RP-HPLC) [1, 10]: 12.25 mg/mL; Lipid Assay (RP-HPLC) [1, 11]: 11.03 mg/mL; Lipid Assay (RP-HPLC) [1, 12]: 12.14 mg/mL; Lipid Assay (RP-HPLC) [1, 13]: 11.10 mg/mL; Lipid Assay (RP-HPLC) [1, 14]: 12.85 mg/mL
2 | CCCCCCCC/C=C\CCCCCCCC(=O)OC[C@H](COP(=O)([O-])OCC[N+](C)(C)C)OC(=O)CCCCCCC/C=C\CCCCCCCC [DOPC, 1,2-Dioleoyl-sn-glycero-3-phosphocholine] |  |  |  |  |  |  |  |  |  |  |  |  | Lipid Content by RP-HPLC [1, 3]: 119.03 mg/mL; Lipid Content by RP-HPLC [1, 4]: 117.39 mg/mL and 121.44 mg/mL and 120.26 mg/mL and 120.00 mg/mL and 116.07 mg/mL; Lipid Assay (RP-HPLC) [1, 5]: 118.41 mg/mL; Lipid Assay (RP-HPLC) [1, 6]: 112.91 mg/mL; Lipid Assay (RP-HPLC) [1, 7]: 124.60 mg/mL; Lipid Assay (RP-HPLC) [1, 8]: 130.11 mg/mL; Lipid Assay (RP-HPLC) [1, 9]: 120.00 mg/mL; Lipid Assay (RP-HPLC) [1, 10]: 121.35 mg/mL; Lipid Assay (RP-HPLC) [1, 11]: 118.41 mg/mL; Lipid Assay (RP-HPLC) [1, 12]: 123.60 mg/mL; Lipid Assay (RP-HPLC) [1, 13]: 102.63 mg/mL; Lipid Assay (RP-HPLC) [1, 14]: 128.00 mg/mL
3 | CCCCCCCC/C=C\CCCCCCCC(=O)O [Oleic Acid, oleic acid] |  |  |  |  |  |  |  |  |  |  |  |  | DOPC degradants by RP-HPLC [1, 4]: 0.60 mg/mL and 0.50 mg/mL; Lipid Degradants (RP-HPLC) [1, 5]: 0.3 mg/mL; Lipid Degradants (RP-HPLC) [1, 6]: 0.2 mg/mL; Lipid Degradants (RP-HPLC) [1, 7]: 0.2 mg/mL; Lipid Degradants (RP-HPLC) [1, 8]: 0.4 mg/mL; Lipid Degradants (RP-HPLC) [1, 9]: 0.2 mg/mL; Lipid Degradants (RP-HPLC) [1, 10]: 0.2 mg/mL; Lipid Degradants (RP-HPLC) [1, 11]: 0.3 mg/mL; Lipid Degradants (RP-HPLC) [1, 12]: 0.3 mg/mL; Lipid Degradants (RP-HPLC) [1, 13]: 0.2 mg/mL; Lipid Degradants (RP-HPLC) [1, 14]: 0.3 mg/mL; DOPC degradants by RP-HPLC [1, 15]: 0.60 mg/mL
4 | CCCCCCCC/C=C\CCCCCCCC(=O)O[C@H](COC(=O)CCCCCCCCCCCCCCC)COP(=O)([O-])OCC[N+](C)(C)C [POPC] |  |  |  |  |  |  |  |  |  |  |  |  | Lipid Impurities (HPLC) ([1]; solubilized Batch #4 in syringe, t = 0): 2.10%; Lipid Impurities (HPLC) ([1]; solubilized Batch #4 in syringe, t = 30 min): 2.91%; Lipid Impurities (HPLC) [1, 15]: 2.94%; Lipid Impurities (RP-HPLC) ([1]; t = 0): 2.65%; Lipid Impurities (RP-HPLC) ([1]; t = 4 h): 1.21%; Lipid Impurities (RP-HPLC) ([1]; t = 24 h): 1.04%; Lipid Impurities (% Area) [1, 3]: 2.65%; Lipid Impurities (% Area) [1, 4]: 2.79% and 2.62% and 2.63% and 2.61% and 2.59%
5 | FTELTLGEF (Survivin HLA-A1 (modified)) [SurA1.T, survivin peptide antigen [HLA-A1]] | 1.09 mg/mL | 1.07 mg/mL (2×) and 1.10 mg/mL and 1.09 mg/mL and 1.11 mg/mL | 1.03 mg/mL | 1.02 mg/mL | 1.03 mg/mL | 1.02 mg/mL | 0.97 mg/mL | 1.07 mg/mL | 1.03 mg/mL | 1.04 mg/mL | 0.99 mg/mL | 1.04 mg/mL | 
6 | LMLGEFLKL (Survivin HLA-A2 (modified)) [SurA2.M, survivin peptide antigen [HLA-A2]] | 1.14 mg/mL | 1.11 mg/mL and 1.14 mg/mL (2×) and 1.15 mg/mL and 1.18 mg/mL | 0.95 mg/mL | 0.91 mg/mL | 0.91 mg/mL | 0.89 mg/mL | 0.88 mg/mL | 0.91 mg/mL | 0.95 mg/mL | 0.92 mg/mL | 0.89 mg/mL | 0.91 mg/mL | 
7 | LPPAWQPFL (Survivin HLA-B7) [SurB7, survivin peptide antigen [HLA-B7]] | 1.09 mg/mL | 1.07 mg/mL (2×) and 1.11 mg/mL (2×) and 1.08 mg/mL | 1.09 mg/mL | 1.01 mg/mL | 1.00 mg/mL | 1.00 mg/mL | 0.99 mg/mL | 1.03 mg/mL | 1.09 mg/mL | 1.01 mg/mL | 1.01 mg/mL | 1.03 mg/mL | 
8 | RISTFKNWPK (Survivin HLA-A3 (modified)) [SurA3.K, survivin peptide antigen [HLA-A3], added after sizing] | 0.89 mg/mL | 0.86 mg/mL and 0.90 mg/mL and 0.91 mg/mL and 0.88 mg/mL and 0.92 mg/mL | 1.04 mg/mL | 0.99 mg/mL | 0.93 mg/mL | 0.92 mg/mL | 0.93 mg/mL | 1.02 mg/mL | 1.04 mg/mL | 0.98 mg/mL | 0.97 mg/mL | 1.02 mg/mL | loss in content from the nominal target limit in the final bulk ([2]; peptide combined with lipid mixture before size extrusion (retained by extruder membrane)): approximately 25%
9 | RRT 3.66 LMLGEFLKL (M oxidized to sulfoxide; SEQ ID NO: 2): peptide impurity: LMLGEFLKL with M oxidized to sulfoxide (L[Met(O)]LGEFLKL) |  |  |  |  |  |  |  |  |  |  |  |  | Peptide Impurities by RP-HPLC (% Area) ([2]; Average (n = 5)): 0.55%; Peptide Impurities by RP-HPLC (% Area) ([2]; individual Vial 1-5): 0.65% and 0.40% and 0.53% and 0.58% and 0.57%
10 | STFKNWPFL (Survivin HLA-A24) [SurA24, survivin peptide antigen [HLA-A24]] | 0.93 mg/mL | 0.92 mg/mL and 0.94 mg/mL and 0.93 mg/mL and 0.91 mg/mL and 0.95 mg/mL | 1.00 mg/mL | 0.98 mg/mL | 0.98 mg/mL | 0.95 mg/mL | 0.95 mg/mL | 0.99 mg/mL | 1.00 mg/mL | 0.99 mg/mL | 0.97 mg/mL | 1.00 mg/mL | 
